Data on two proteins can be found in paper PMC5827449, “Structural analysis of group II chitinase (ChtII) catalysis completes the puzzle of chitin hydrolysis in insects” (The Journal of Biological Chemistry, 2018).

Substrate in data set [1]: CC(=O)N[C@H]1[C@H](Oc2ccc3c(C)cc(=O)oc3c2)O[C@H](CO)[C@@H](O[C@@H]2O[C@H](CO)[C@@H](O)[C@H](O)[C@H]2NC(C)=O)[C@@H]1O
The experiment in a line: fluorescence of released 4-methylumbelliferone. The following applies: pH 6.0, 20 mM sodium phosphate, 303 K, 20 min, 30.0 °C. The format is biochemical, Ostrinia furnacalis. The text has this: fluorescence of released 4-methylumbelliferone on OfChtII-C2

Substrate in data set [2]: CC(=O)N[C@H]1[C@H](Oc2ccc3c(C)cc(=O)oc3c2)O[C@H](CO)[C@@H](O[C@@H]2O[C@H](CO)[C@@H](O)[C@H](O)[C@H]2NC(C)=O)[C@@H]1O
Put plainly: fluorescence of released 4-methylumbelliferone. The format is biochemical, Ostrinia furnacalis. Particulars: pH 6.0, 20 mM sodium phosphate, 303 K, 20 min, 30.0 °C. The text has this: fluorescence of released 4-methylumbelliferone on OfChi-h
This is another data set of the same source.

B1: OfChtII-C2 (Ostrinia furnacalis) (protein)
chain: ERFKVVCYYTNWAWYRPDNGKYTPGDINPELCTHIIYAFAVLDKEELVIKSHDIWLDVENKFYEKVTALKSHGVKVLLGLGGWDDSAGDKYSRLVNNVSARRKFVVHAVDFLEQYGFDGLDLDWEYPKCWQVECEKGPDSDKQGFADLVKELRKAFNRRGMLLSAAVSASKRVIDYAYNVPALSMNLDWISLMTYDYHGQWDKKTGHVAPMYVHDKDTDNTFNVNFTVNYWINKGADRKKLVVGVPFYGQSFSVVEGAGTGLGAPTYAGGEAGDETRARGFLSFYEICERVKVKGWKVHRDPGGRIGPYATHDDQWVSFDDDFMARHKAEYVRAMELGGSMAWSLDLDDFTGKYCGCGKAPLLTTINHVLRGKEAPPPCIL
notes: single GH18 catalytic domain C2 (barrel 2059-2301 and 2377-2426); His-tag purified from Pichia pastoris GS115
For B1, in data set [1], the Km was found to be 11.93 ± 0.50 µM, the kcat came out at 0.2037 ± 0.0025 s⁻¹ and the specificity constant (kcat/Km) came out at 17000 M⁻¹ s⁻¹.

B2: OfChi-h (Ostrinia furnacalis) (protein)
chain: APPGKPSLGWGERTFAIVEVNQAATAYNQLVTKRDSADVSVTWNVWSGDPADKARVLLNDKEFWSGTGGAAGSASFKVKKGGRYQMVVELCNADGCSQSDATEIIVADTDGSHLPPLDYNMGEKNKPFKQTSGKVVGAYFVEWGVYPRKFPVDRVPIPNLTHLLYGFIPICGGDGINDSLKEIEGSFQALQRSCSGREDFKVSIHDPWAALQKPQKGLSSWNEPYKGNFGQLMMLKQAKPDLKILPSIGGWTLADPFFFFTDETKRRRFVASVKDFLQTWKFFDGVDIDWEFPGGKGANPNLGSPKDGEIYVLLMKELREMLNELSAETGRKYELTSAISAGWDKIQVVDYSAAQKYMDHIFFMSYDFKGAWSNDTLGHQASLYAPDWNEKETYTTDFGVQFLLAQGVSPKKIVVGVAMYGRGWTGVHGYKDNNPFTGNATGPVKGTWQDGVVDYREIATEIAQGKWEYHYDKVAQAPYVFRPATGDLITYDDARSTIEKGKYVRANKLGGLFAWEIDADNGDILNAMNMGLGNSA
For the protein B2, in data set [2], the Michaelis constant (Km) came out at 7.32 ± 0.35 µM, the kcat worked out at 3.1378 ± 0.0885 s⁻¹ and the kcat/Km was determined as 429000 M⁻¹ s⁻¹.
